Test results: publication PMC5039489
One block for each molecule: values may come before it.

Assays:
[1] = molecular target: CK2α-DBCO545 (human protein kinase CK2α subunit with pAzF at position 239, coupled to DBCO545) (human) (UniProt P68400)
[2] = molecular target: CK2β autotransporter fusion protein (CK2β-AT), displayed on the surface of E. coli by Autodisplay (human); assay: flow cytometry on cells; E. coli BL21(DE3) cells displaying the protein by Autodisplay (OD578 = 1, 20 µL) incubated with 10 µL purified CK2α-DBCO545 for 60 min at 37 °C, washed three times with PBS; 561 nm laser; 50,000 cells
[3] = molecular target: CK2α-DBCO-Sulfo-Cy5 (human protein kinase CK2α subunit with pAzF at position 239, coupled to DBCO-Sulfo-Cy5) (human) (UniProt P68400); assay: MST; CK2α-DBCO-Sulfo-Cy5 constant (65 nM), αS1-casein titrated from 0.76 nM to 12.50 µM; kinase buffer (50 mM Tris/HCl pH 8.5, 25 mM NaCl, 20 mM MgCl2) with 0.1% Tween-20; samples incubated at 37 °C for 90 min; recorded at 30 °C; Monolith NT.115; three independent experiments

phosphorylation activity on the substrate peptide … by capillary electrophoresis: CK2α-DBCO545 with purified CK2β added in a 1:1 ratio against CK2α-DBCO545 alone [1]: 8 fold
Molecule: purified regulatory CK2β-subunit (from UniProt P67870 1-215) (natural protein)

mean fluorescence intensity (mF) [2]: 3800
B1: CK2α-DBCO545 (human protein kinase CK2α subunit with pAzF at position 239, coupled to DBCO545) (enzyme)
chain: MSGPVPSRARVYTDVNTHRPREYWDYESHVVEWGNQDDYQLVRKLGRGKYSEVFEAINITNNEKVVVKILKPVKKKKIKREIKILENLRGGPNIITLADIVKDPVSRTPALVFEHVNNTDFKQLYQTLTDYDIRFYMYEILKALDYCHSMGIMHRDVKPHNVMIDHEHRKLRLIDWGLAEFYHPGQEYNVRVASRYFKGPELLVDYQMYDYSLDMWSLGCMLASMIFRKEPFFHGHDN
modifications: para azidophenylalanine (pAzF) at 239, coupled to dibenzylcyclooctyne-fluor 545 (DBCO545) by SPAAC click reaction

Kd [3]: 631 nM
B2: human αS1-casein (natural protein)
chain: RPKLPLRYPERLQNPSESSEPIPLESREEYMNGMNRQRNILREKQTDEIKDTRNESTQNCVVAEPEKMESSISSSSEEMSLSKCAEQFCRLNEYNQLQLQAAHAQEQIRRMNENSHVQVPFQQLNQLAAYPYAVWYYPQIMQYVPFPPFSDISNPTAHENYEKNNVMLQW
